Results: the DeepSol protein solubility set

Test: soluble on expression in E. coli; label from the status in PepcDB or PDB records

Sequence	soluble on expression in E. coli
MAQREWVEKDFYQELGVSSDASPEEIKRAYRKLARDLHPDANPGNPAAGERFKAVSEAHNVLSDPAKRKEYDETRRLFAGGGFGGRRFDSGFGGGFGGFGVGGDGAEFNLNDLFDAASRTGGTTIGDLFGGLFGRGGSARPSRPRRGNDLETETELDFVEAAKGVAMPLRLTSPAPCTNCHGSGARPGTSPKVCPTCNGSGVINRNQGAFGFSEPCTDCRGSGSIIEHPCEECKGTGVTTRTRTINVRIPPGVEDGQRIRLAGQGEAGLRGAPSGDLYVTVHVRPDKIFGRDGDDLTVTVPVSFTELALGSTLSVPTLDGTVGVRVPKGTADGRILRVRGRGVPKRSGGSGDLLVTVKVAVPPNLAGAAQEALEAYAAAERSSGFNPRAGWAGNR	soluble
MGSDKIHHHHHHMFSLFETFIVVYETKSFTLAGKYLFISQPTVTVRIKKLEEELKSTLFLRGKHQEIIPTEAAILFYPKAIAYLKKWEEDQAEVQKKSLAKHPFKIGVSHSAALSIMPGIFKVFEGELEHLDVEINMYDSEKVFELVANHDLHFGIIERLLISDQTETFPLFLDELVLAGNTDSETFFTRESGSGIGYYIKRYLKSAPSAQRNIVRMNSNEMIISHIKAGLGSSLISKSFLTDDIPYQELGSNYHREFLGVSFDEEKDPMIQKLISKIKKETEIH	not soluble
MAAISLAKVEETAPALVSLYKSAGVSLHKHGLDGQRAAVYLVVDYSGSMRPYYKDGSVQALTDRVLGLSAHLDDDGTVPVVFFSTDIDAVTDIALADHQGHIELIVAGLGHMGKTSYHLAMDAVIDHYLDSGSKDPAFVVFQTDGGPTSKPAAERYLCKAAELPLFWQFIGFGDPGSRQFEFLRKLDELAVPHKRVVDNAGFFHAGTDPRKVSDGELYDRLVGEFPQWLAAARTHGIVRLEHHHHHH	not soluble
MGSDKIHHHHHHMGCEIDRDASGLHSLQGLAGRDVSVAAGAKVGWSFMGTGTIATELVVEAIRSVGHSPLWVVSRSKRDADHFAEDLGIPHSTTELGPVLQDPSVGFAYISASLKRRPHYITAAAGAGKHILCDGPISCTSKTASALVELCRGARASLVVNQRLRASTIHQTMRRLVRDGDIGAVQSIVLIRGGPYQAPPNRSARDFNDGSGIYLDVSVENIDLARFLTGAEPVEATALITSEKMVPSQATYILRLSDGSLFQAHESFRTADIESMVLVAGDRGALIAQGTLNGRTSGTLMRRADGRNEAVPVRDHDVHLATVREFANTRGQTPSWLSQGTDSVIALRTVEAVAMSAKKRRTVPIQG	not soluble
MRIVAPVMPRHFDEAQAIDISKYEDVNLIEWRADFLPKDEIVAVAPAIFEKFAGKEIIFTLRTVQEGGNITLSSQEYVDIIKEINAIYNPDYIDFEYFTHKSVFQEMLDFPNLILSYHNFEETPENLMEAFSEMTKLAPRVVKIAVMPQSEQDVLDLMNYTRGFKTLNPEQEFATISMGKLGRLSRFAGDVIGSSWTYVSLDHVSGPGQVTLNDMKRIIEVLEMDISN	soluble
MTEKTTVKTLKDVVVRFCGDSGDGMQLTGTIFSDLSAVFGNTISTFPDYPAEIRAPQGTLGGVSGFQVHIGTDLVRTPGDLADVLVAMNPAALKVNRTHVRRDSIIIIDSDSFMASDLEKAEIASEDFMTELGLTTQELFTVPISSMVKKSTAEFGLDVKAALRCKNMFALGLVCWLFDRPTQHAIDYLNRKFGKKEAILNANIKALADGFNYGHNTHATATTYRIEGRKQTPGVYMDISGNKATAYGLVAAAEHANLNLFLGSYPITPATDILHELAKLKSLGVKTVQAEDEIAGICTAIGVSFAGDLAVTTTSGPGLALKSEALGLTVMAELPLVLVDVQRGGPSTGLPTKSEQTDLLQALFGRNGESPIPVIAATTPSDCFDSAFWACKIALEHMTPVILLTDAFIANGSSAWRIPDPQSYPDIRPPYVDQYKGEAKWRPYFRNEETHVRYWAIPGQEGFQHRLGGLEKDYVTGAISTNPENHAKMVATREAKVQAIAQDIPDLEVHGDKDDAELLIIGWGGTYGHLYETMERMRNAGKKVALAHFRFINPLPKNTAEVLQRYPKAVVAEQNLGQFALYLRGEVPGFHPLQFNRVTGQPLVMSEMVEVFTQMMEEK	not soluble
MGSDKIHHHHHHMTLSITSNFDAGAIDVVSCERADAIRLRVRGDNRSEFAQWFYFRLTGARGERCVMTFENANDCAYPAGWRDYRAVASYDRVNWFRVPTSYDGQMLTIDHTPEFDSIHYAYFEPYSEERHSEFLGAVQQMPQASVVELGRTVEGRPMSLVVLGTPDEAGAAKKKVWIIARQHPGESMAEWFIEGLVKRLVGWGDWSGDPVARKLYDHATFYIVPNMNPDGSVHGNLRTNAAGANLNREWMEPDAERSPEVLVVRDAIHAIGCDLFFDIHGDEDLPYVFAAGSEMLPGFTEQQRVEQSAFIDSFKRASPDFQDEHGYPPGKYREDAFKLASKYIGHRFGCLSLTLEMPFKDNANLPDEHIGWNGARSASLGAAMLGAILEHVRAFA	not soluble
